Test results as given in publication PMC4838878, “Super-complexes of adhesion GPCRs and neural guidance receptors” (Nature Communications, 2016).
“And” between values parts separate entries of the source, which are not always exact repeats. Equal values may be shown once. One block for each binder: values may come before it.

B2: rat Unc5D ectodomain (Unc5D^ecto), biotinylated at a C-terminal Avitag (domain or fragment)
chain: not shown
modifications: biotin on the C-terminal Avitag (enzymatic)
notes: signal peptide in the construct; Unc5D, rat, residues 1-382 (all extracellular domains); The form held on the streptavidin-coated CM5 chip in SPR; not shown: Avitag, C-terminal, kept
B3: mouse Latrophilin3 Lec+Olf (Lphn3^Lec–Olf) (domain or fragment, UniProt Q80TS3-3 92-463, looked up)
chain: PIPMAVVRRELSCESYPIELRCPGTDVIMIESANYGRTDDKICDSDPAQMENIRCYLPDAYKIMSQRCNNRTQCAVVAGPDVFPDPCPGTYKYLEVQYECVPYKVEQKVFLCPGLLKGVYQSEHLFESDHQSGAWCKDPLQASDKIYYMPWTPYRTDTLTEYSSKDDFIAGRPTTTYKLPHRVDGTGFVVYDGALFFNKERTRNIVKFDLRTRIKSGEAIIANANYHDTSPYRWGGKSDIDLAVDENGLWVIYATEQNNGKIVISQLNPYTLRIEGTWDTAYDKRSASNAFMICGILYVVKSVYEDDDNEATGNKIDYIYNTDQSKDSLVDVPFPNSYQYIAAVDYNPRDNLLYVWNNYHVVKYSLDFGPLD
notes: Latrophilin3 (Lphn3, ADGRL3), mouse, residues 92-463 (lectin and olfactomedin-like domains); pHLSec vector family; treated with endoglycosidase F1 before crystallisation; Two copies (Lphn3A, Lphn3B) stand in each 1:1:2 tetramer; also called Lphn3A^Lec–Olf; Lphn3B^Lec–Olf
B4: Lphn3^Lec–Olf DDD charge-reversal mutant (D397R, D398R and D399R) (domain or fragment, mouse, UniProt Q80TS3-3 92-463, looked up)
chain: PIPMAVVRRELSCESYPIELRCPGTDVIMIESANYGRTDDKICDSDPAQMENIRCYLPDAYKIMSQRCNNRTQCAVVAGPDVFPDPCPGTYKYLEVQYECVPYKVEQKVFLCPGLLKGVYQSEHLFESDHQSGAWCKDPLQASDKIYYMPWTPYRTDTLTEYSSKDDFIAGRPTTTYKLPHRVDGTGFVVYDGALFFNKERTRNIVKFDLRTRIKSGEAIIANANYHDTSPYRWGGKSDIDLAVDENGLWVIYATEQNNGKIVISQLNPYTLRIEGTWDTAYDKRSASNAFMICGILYVVKSVYERRRNEATGNKIDYIYNTDQSKDSLVDVPFPNSYQYIAAVDYNPRDNLLYVWNNYHVVKYSLDFGPLD
notes: Latrophilin3, mouse, residues 92-463 (Lec and Olf domains) with three substitutions in the DDD loop
B6: mouse FLRT2 LRR domain (FLRT2^LRR) (domain or fragment, UniProt Q8BLU0 35-362, looked up)
chain: ACPSVCRCDRNFVYCNERSLTSVPLGIPEGVTVLYLHNNQINNAGFPAELHNVQSVHTVYLYGNQLDEFPMNLPKNVRVLHLQENNIQTISRAALAQLLKLEELHLDDNSISTVGVEDGAFREAISLKLLFLSKNHLSSVPVGLPVDLQELRVDENRIAVISDMAFQNLTSLERLIVDGNLLTNKGIAEGTFSHLTKLKEFSIVRNSLSHPPPDLPGTHLIRLYLQDNQINHIPLTAFANLRKLERLDISNNQLRMLTQGVFDHLSNLKQLTARNNPWFCDCSIKWVTEWLKYIPSSLNVRGFMCQGPEQVRGMAVRELNMNLLSCPT
notes: FLRT2, mouse, residues 35-362 (leucine-rich repeat domain); pHLSec vector family; treated with endoglycosidase F1 before crystallisation

Assays:
[1] = molecular target: B6; assay: crystal structure; Lphn3^Lec–Olf, FLRT2^LRR and Unc5D^Ig deglycosylated, mixed 1:1:1, SEC; crystals at 18 °C, 0.1 M sodium cacodylate pH 6.5; 6 Å (PDB 5ftu); conditions: both partners purified
[2] = molecular target: T1, FLRT2^LRR+Lphn3^Lec–Olf DDD mutant (mouse, UniProt Q8BLU0 35-362; Q80TS3-3 92-463, D397N | D399T, artificial N-linked glycan at position 397); assay: SPR; Unc5D^ecto biotinylated at a C-terminal Avitag and coupled to a streptavidin-coated CM5 chip; FLRT2^LRR or FLRT2^LRR+Lphn3^Lec–Olf (1:2 molar ratio) injected; equilibrium binding, 25 °C, PBS+0.005% polysorbate 20 pH 7.5; apparent Kd, 1:1 and 1:(1:1) models, called indicative only; conditions: both partners purified
T1 construct: FLRT2, mouse, residues 35-362 (leucine-rich repeat domain); as m2; Latrophilin3, mouse, residues 92-463 with D397N+D399T; as m9
T1 sequence (looked up) 1: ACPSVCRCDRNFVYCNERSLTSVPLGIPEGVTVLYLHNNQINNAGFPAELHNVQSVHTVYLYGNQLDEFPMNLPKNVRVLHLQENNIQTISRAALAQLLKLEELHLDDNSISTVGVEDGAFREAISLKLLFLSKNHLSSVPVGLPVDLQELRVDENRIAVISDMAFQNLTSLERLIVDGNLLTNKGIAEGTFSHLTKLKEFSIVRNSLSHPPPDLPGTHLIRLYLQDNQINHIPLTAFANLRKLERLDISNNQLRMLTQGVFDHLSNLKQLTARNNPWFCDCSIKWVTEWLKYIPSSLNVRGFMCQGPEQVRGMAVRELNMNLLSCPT
T1 sequence (looked up) 2: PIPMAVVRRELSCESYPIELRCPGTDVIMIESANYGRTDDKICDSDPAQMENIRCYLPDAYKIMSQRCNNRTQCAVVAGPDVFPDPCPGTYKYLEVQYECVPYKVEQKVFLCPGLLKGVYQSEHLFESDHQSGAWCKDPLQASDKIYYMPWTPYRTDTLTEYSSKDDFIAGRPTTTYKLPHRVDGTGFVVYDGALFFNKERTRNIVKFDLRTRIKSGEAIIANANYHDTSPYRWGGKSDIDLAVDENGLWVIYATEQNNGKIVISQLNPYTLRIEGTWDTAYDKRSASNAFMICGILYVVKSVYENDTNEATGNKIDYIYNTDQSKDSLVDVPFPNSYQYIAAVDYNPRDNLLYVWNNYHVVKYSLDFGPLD

[3] = molecular target: T2, FLRT2^LRR+Lphn3^Lec–Olf (mixed in a 1:2 molar ratio) (mouse, UniProt Q8BLU0 35-362; Q80TS3-3 92-463); assay: as above; conditions: both partners purified
T2 construct: FLRT2, mouse, residues 35-362 (leucine-rich repeat domain); as m2; Latrophilin3, mouse, residues 92-463 (Lec and Olf domains); as m1; Analyte mixture of the SPR experiment; by SEC-MALS the two proteins alone form a 1:1 complex; also called FLRT2^LRR+wild-type Lphn3^Lec–Olf
T2 sequence (looked up) 1: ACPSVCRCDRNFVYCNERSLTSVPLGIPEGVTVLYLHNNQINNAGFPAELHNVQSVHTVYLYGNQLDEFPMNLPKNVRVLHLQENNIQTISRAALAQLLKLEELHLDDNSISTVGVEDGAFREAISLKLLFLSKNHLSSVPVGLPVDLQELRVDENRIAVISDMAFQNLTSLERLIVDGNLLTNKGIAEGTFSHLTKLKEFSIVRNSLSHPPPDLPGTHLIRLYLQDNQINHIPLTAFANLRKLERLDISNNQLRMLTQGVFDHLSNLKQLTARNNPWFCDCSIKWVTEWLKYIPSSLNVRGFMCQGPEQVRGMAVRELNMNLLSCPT
T2 sequence (looked up) 2: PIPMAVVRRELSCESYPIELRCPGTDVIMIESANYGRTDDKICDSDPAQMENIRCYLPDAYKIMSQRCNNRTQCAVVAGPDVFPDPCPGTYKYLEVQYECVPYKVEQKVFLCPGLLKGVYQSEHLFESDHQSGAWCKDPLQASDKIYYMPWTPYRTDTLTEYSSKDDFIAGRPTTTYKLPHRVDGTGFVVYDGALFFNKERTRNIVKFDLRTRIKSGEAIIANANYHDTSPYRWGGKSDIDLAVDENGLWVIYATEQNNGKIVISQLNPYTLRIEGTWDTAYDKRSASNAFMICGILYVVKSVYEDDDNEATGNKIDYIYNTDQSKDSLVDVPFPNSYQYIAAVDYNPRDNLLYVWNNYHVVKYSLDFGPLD

[4] = molecular target: the molecule itself; assay: crystal structure; Lphn3^Lec–Olf, FLRT2^LRR and Unc5D^Ig deglycosylated, mixed 1:1:1, SEC; crystals at 18 °C, 0.1 M sodium cacodylate pH 6.5; 6 Å (PDB 5ftu)
[5] = molecular target: B6; assay: native MS; purified proteins mixed (FLRT2^LRR:Unc5D:Lphn3^Lec–Olf 1:1:2), 10–15 μM, 0.2 M ammonium acetate pH 7.5; Q-ToF; tandem MS of the tetramer peak at 150 V collision energy; conditions: both partners purified
[6] = molecular target: the molecule itself; assay: as above
[7] = molecular target: B6; assay: crystal structure; Lphn3^Lec–Olf, FLRT2^LRR and Unc5D^IgIgTsp deglycosylated, mixed 2:1:1; crystals at 18 °C; 3.4 Å (PDB 5ftt); conditions: both partners purified
[8] = molecular target: T3, rat Unc5D ectodomain (Unc5D^ecto) (rat, UniProt F1LW30 31-382); assay: SEC-MALS; proteins mixed (Lphn3^Lec–Olf:FLRT:Unc5 2:1:1) and concentrated; Superdex 200 10/30, 10 mM Tris-HCl pH 7.5, 150 mM NaCl; conditions: both partners purified
T3 construct: signal peptide in the construct; Unc5D, rat, residues 1-382 (all extracellular domains); The form used in native MS and SEC-MALS
T3 sequence (F1LW30 31-382): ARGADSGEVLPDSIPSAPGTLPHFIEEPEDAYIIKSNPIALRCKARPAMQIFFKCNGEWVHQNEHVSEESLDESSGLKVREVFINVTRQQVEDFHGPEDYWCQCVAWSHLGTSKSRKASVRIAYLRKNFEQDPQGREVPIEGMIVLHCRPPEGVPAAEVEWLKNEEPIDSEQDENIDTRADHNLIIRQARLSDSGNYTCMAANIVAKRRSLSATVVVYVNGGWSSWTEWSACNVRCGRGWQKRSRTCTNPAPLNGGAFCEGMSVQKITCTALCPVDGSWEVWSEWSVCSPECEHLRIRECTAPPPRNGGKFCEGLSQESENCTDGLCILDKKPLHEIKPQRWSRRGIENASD

[9] = molecular target: B3; assay: crystal structure; Lphn3^Lec–Olf, FLRT2^LRR and Unc5D^Ig deglycosylated, mixed 1:1:1, SEC; crystals at 18 °C, 0.1 M sodium cacodylate pH 6.5; 6 Å (PDB 5ftu); conditions: both partners purified
[10] = molecular target: B4; assay: native MS; purified proteins mixed (FLRT2^LRR:Unc5D:Lphn3^Lec–Olf 1:1:2), 10–15 μM, 0.2 M ammonium acetate pH 7.5; Q-ToF; tandem MS of the tetramer peak at 150 V collision energy; conditions: both partners purified
[11] = molecular target: T4, Lphn3^Lec–Olf DDD mutant (D397N+D399T, artificial N-linked glycosylation site at position 397) (mouse, UniProt Q80TS3-3 92-463, D397N | D399T, artificial N-linked glycan at position 397); assay: as above; conditions: both partners purified
T4 construct: Latrophilin3, mouse, residues 92-463 (Lec and Olf domains) with two substitutions in the DDD loop
T4 sequence (looked up): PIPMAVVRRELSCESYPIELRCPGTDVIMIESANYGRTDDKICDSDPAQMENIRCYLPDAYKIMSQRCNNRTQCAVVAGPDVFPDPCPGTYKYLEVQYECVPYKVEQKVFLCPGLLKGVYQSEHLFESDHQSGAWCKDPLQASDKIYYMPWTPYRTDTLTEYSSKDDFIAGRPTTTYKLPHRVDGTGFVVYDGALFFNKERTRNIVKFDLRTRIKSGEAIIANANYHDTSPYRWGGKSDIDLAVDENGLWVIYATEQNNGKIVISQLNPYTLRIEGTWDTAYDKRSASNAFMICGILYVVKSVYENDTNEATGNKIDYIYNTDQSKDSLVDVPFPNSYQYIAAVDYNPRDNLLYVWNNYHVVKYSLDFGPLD

[12] = molecular target: B2; assay: SPR; Unc5D^ecto biotinylated at a C-terminal Avitag and coupled to a streptavidin-coated CM5 chip; FLRT2^LRR or FLRT2^LRR+Lphn3^Lec–Olf (1:2 molar ratio) injected; equilibrium binding, 25 °C, PBS+0.005% polysorbate 20 pH 7.5; apparent Kd, 1:1 and 1:(1:1) models, called indicative only; conditions: both partners purified

binding result [1]: binds
B1: rat Unc5D Ig domain 1 (Unc5D^Ig) (domain or fragment)
chain: not shown
notes: signal peptide in the construct; Unc5D, rat, residues 1-161 (Ig domain 1); Treated with endoglycosidase F1 before crystallisation

Binder: B2
binding result [2]: binds
Kd [3]: 94 nM

Binder: B3
binding result [4]: binds
stoichiometry N [5]: 1 and 2

Binder: B4
binding result [6]: binds

binding result [7]: binds
B5: rat Unc5D two Ig and TSP1 domains (Unc5D^IgIgTSP) (domain or fragment)
chain: not shown
notes: signal peptide in the construct; Unc5D, rat, residues 1-307 (Ig1, Ig2 and TSP1 domains); Deglycosylated before crystallisation

Binder: B6
stoichiometry N [8]: 1
binding result [9]: binds
binding result [10]: binds
binding result [11]: binds
Kd [12]: 460 nM
